B1: RHOBTB3 (parent)
chain: VSHVFMLLFNVKSPTDIQDSSIIR
B2: RHOBTB2 (parent)
chain: NQEITKAFHVRRTNRVKECLAKGT

Variants of: B1
Assay: protein stability index of a GFP-peptide fusion (GPS, HEK-293T) (PSI 1-6); higher = more stable
Settings: c terminus: a fixed tail appended
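Also: lentivirally expressed fusions sorted by FACS into six bins by GFP to DsRed ratio, PSI derived from sequencing read proportions per bin multiplied by bin number.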

Variant | protein stability index
LSHVFMLLFNVKSPTDIQDSSIIR | 1.33
ISHVFMLLFNVKSPTDIQDSSIIR | 3.46
ESHVFMLLFNVKSPTDIQDSSIIR | 2.08
KSHVFMLLFNVKSPTDIQDSSIIR | 1.05
WSHVFMLLFNVKSPTDIQDSSIIR | 3.32
FSHVFMLLFNVKSPTDIQDSSIIR | 2.54
ASHVFMLLFNVKSPTDIQDSSIIR | 2.98
MSHVFMLLFNVKSPTDIQDSSIIR | 3.38
NSHVFMLLFNVKSPTDIQDSSIIR | 1.89
PSHVFMLLFNVKSPTDIQDSSIIR | 3.42
QSHVFMLLFNVKSPTDIQDSSIIR | 2.22
DSHVFMLLFNVKSPTDIQDSSIIR | 2.05
SSHVFMLLFNVKSPTDIQDSSIIR | 2.88
VDHVFMLLFNVKSPTDIQDSSIIR | 2.44
VYHVFMLLFNVKSPTDIQDSSIIR | 2.75
VWHVFMLLFNVKSPTDIQDSSIIR | 2.82
VKHVFMLLFNVKSPTDIQDSSIIR | 3.57

Variant | protein stability index
VAHVFMLLFNVKSPTDIQDSSIIR | 2.55
VVHVFMLLFNVKSPTDIQDSSIIR | 3.75
VMHVFMLLFNVKSPTDIQDSSIIR | 3.95
VNHVFMLLFNVKSPTDIQDSSIIR | 2.84
VLHVFMLLFNVKSPTDIQDSSIIR | 3.13
VFHVFMLLFNVKSPTDIQDSSIIR | 3.6
VGHVFMLLFNVKSPTDIQDSSIIR | 2.58
VSRVFMLLFNVKSPTDIQDSSIIR | 2.1
VSEVFMLLFNVKSPTDIQDSSIIR | 1.42
VSPVFMLLFNVKSPTDIQDSSIIR | 1.52
VSDVFMLLFNVKSPTDIQDSSIIR | 2.38
VSMVFMLLFNVKSPTDIQDSSIIR | 1.78
VSLVFMLLFNVKSPTDIQDSSIIR | 2.69
VSSVFMLLFNVKSPTDIQDSSIIR | 2.28
VSQVFMLLFNVKSPTDIQDSSIIR | 2.51
VSVVFMLLFNVKSPTDIQDSSIIR | 3.75
VSGVFMLLFNVKSPTDIQDSSIIR | 3.65

Variants of: B2
Assay: as above
Settings: c terminus: a fixed tail appended

Variant | protein stability index
GQEITKAFHVRRTNRVKECLAKGT | 2.88
QQEITKAFHVRRTNRVKECLAKGT | 3.87
LQEITKAFHVRRTNRVKECLAKGT | 2.31
HQEITKAFHVRRTNRVKECLAKGT | 2.86
MQEITKAFHVRRTNRVKECLAKGT | 2.66
CQEITKAFHVRRTNRVKECLAKGT | 2.25
NQEITKAFHVRRTNQVKECLAKGT | 3.87
NQEITKAFHVRRTNVVKECLAKGT | 3.73
NQEITKAFHVRRTNFVKECLAKGT | 2.84
NQEITKAFHVRRTNWVKECLAKGT | 2.58
NQEITKAFHVRRTNLVKECLAKGT | 3.36
NQEITKAFHVRRTNRVKECLAKGD | 3.46
NQEITKAFHVRRTNRVKECLAKGL | 3.53
NQEITKAFHVRRTNRVKECLAKGG | 2.92
NQEITKAFHVRRTNRVKECLAKGC | 2.19
NQEITKAFHVRRTNRVKECLAKGM | 2.86
NQEITKAFHVRRTNRVKECLAKAT | 2.73
NQEITKAFHVRRTNRVKECLAKFT | 2.07
NQEITKAFHVRRTNRVKECLAKQT | 2.99
NQEITKAFHVRRTNRVKECLAKST | 3.11
NQEITKAFHVRRTNRVKECLAKPT | 3.25
NQEITKAFHVRRTNRVKECLAKWT | 2.61
NQEITKAFHVRRTNRVKECLAKTT | 2.66
NQEITKAFHVRRTNRVKECLAKRT | 2.82
NQEITKAFHVRRTNRVKECLASGT | 3.86
NQEITKAFHVRRTNRVKECLAFGT | 1.88

Variant | protein stability index
NQEITKAFHVRRTNRVKECLACGT | 3.3
NQEITKAFHVRRTNRVKECLALGT | 2.61
NQEITKAFHVRRTNRVKECLAHGT | 3.03
NQEITKAFHVRRTNRVKECLAQGT | 3.28
NQEITKAFHVRRTNRVKECLADGT | 3.64
NQEITKAFHVRRTNRVKECLAMGT | 2.73
NQEITKAFHVRRTNRVKECLARGT | 3.67
NQEITKAFHVRRTNRCKECLAKGT | 2.51
NQEITKAFHVRRTNRIKECLAKGT | 2.91
NQEITKAFHVRRTNRPKECLAKGT | 4.09
NQEITKAFHVRRTNRHKECLAKGT | 2.88
NQEITKAFHVRRTNRNKECLAKGT | 3.41
NQEITKAFHVRRTNRTKECLAKGT | 3.02
NQEITKAFHVRRTNRAKECLAKGT | 2.78
NQEITKAFHVRRTNRWKECLAKGT | 3.4
NQEITKAFHVRNTNRVKECLAKGT | 3.92
NQEITKAFHVRWTNRVKECLAKGT | 2.38
NQEITKAFHVRHTNRVKECLAKGT | 3.72
NQEITKAFHVRVTNRVKECLAKGT | 2.83
NQEITKAFHVRDTNRVKECLAKGT | 3.78
NQEITKACHVRRTNRVKECLAKGT | 4.96
NQEITKALHVRRTNRVKECLAKGT | 3.77
NQEITKADHVRRTNRVKECLAKGT | 4.67
NQEITKAYHVRRTNRVKECLAKGT | 3.37
NQEITKAHHVRRTNRVKECLAKGT | 4.73
NQEITKAKHVRRTNRVKECLAKGT | 4.15

Variant | protein stability index
NHEITKAFHVRRTNRVKECLAKGT | 3.53
NVEITKAFHVRRTNRVKECLAKGT | 3.5
NFEITKAFHVRRTNRVKECLAKGT | 3.01
NIEITKAFHVRRTNRVKECLAKGT | 2.6
NDEITKAFHVRRTNRVKECLAKGT | 4.2
NQEITKAFHVRRTTRVKECLAKGT | 2.95
NQEITKAFHVRRTDRVKECLAKGT | 3.82
NQEITKAFHVRRTERVKECLAKGT | 4.4
NQEITKAFHVRRTRRVKECLAKGT | 2.97
NQEITKAFHVRRTMRVKECLAKGT | 2.54
NQEINKAFHVRRTNRVKECLAKGT | 3.22
NQEILKAFHVRRTNRVKECLAKGT | 2.86
NQEIYKAFHVRRTNRVKECLAKGT | 3.46
NQEISKAFHVRRTNRVKECLAKGT | 3.48
NQEIEKAFHVRRTNRVKECLAKGT | 4.16
NQEIVKAFHVRRTNRVKECLAKGT | 3.51
NQEIGKAFHVRRTNRVKECLAKGT | 2.21
NQEIFKAFHVRRTNRVKECLAKGT | 2.67
NQEIRKAFHVRRTNRVKECLAKGT | 3.7
NQEITKAFHVRRTNRVKEWLAKGT | 2.35
NQEITKAFHVRRTNRVKERLAKGT | 2.9
NQEITKAFHVRRTNRVKEKLAKGT | 3.46
NQEITKAFHVRRTNRVKEGLAKGT | 3.41
NQEITKAFHVRRTNRVKEQLAKGT | 3.35
NQEITKAFHVRRTNRVYECLAKGT | 2.36
NQEITKAFHVRRTNRVFECLAKGT | 2.06

Variant | protein stability index
NQEITKAFHVRRTNRVDECLAKGT | 3.64
NQEITKAFHVRRTNRVCECLAKGT | 2.22
NQEITKAFHVRRTNRVEECLAKGT | 3.04
NQEITKAFHVRRTNRVVECLAKGT | 2.26
NQEITKAFHVRRTNRVPECLAKGT | 2.4
NQEITKAFHVRRTNRVHECLAKGT | 2.94
NQEITKAFHVRRTNRVNECLAKGT | 2.92
NQEITKAFHVRRTNRVKECSAKGT | 4.04
NQEITKAFHVRRTNRVKECDAKGT | 3.98
NQEITKAFHVRRTNRVKECRAKGT | 2.74
NQEITKAFHVRRTNRVKECEAKGT | 4.03
NQEITKAFHVRRTNRVKECPAKGT | 2.39
NQEITKAFHVRRTNRVKECFAKGT | 3.44
NQEITKAFHVRRTNRVKECQAKGT | 3.74
NQEITKAFHARRTNRVKECLAKGT | 4.09
NQEITKAFHQRRTNRVKECLAKGT | 3.84
NQEITKAFHFRRTNRVKECLAKGT | 3.39
NQEITKAFHERRTNRVKECLAKGT | 4.71
NQEITKAFHDRRTNRVKECLAKGT | 4.25
NQCITKAFHVRRTNRVKECLAKGT | 2.31
NQQITKAFHVRRTNRVKECLAKGT | 2.22
NQPITKAFHVRRTNRVKECLAKGT | 3.38
NQRITKAFHVRRTNRVKECLAKGT | 3.02
NQEITKAFHVRRTNRVKRCLAKGT | 2.74
NQEITKAFHVRRTNRVKSCLAKGT | 2.59
NQEITKAFHVRRTNRVKICLAKGT | 1.94

Variant | protein stability index
NQEITKAFHVRRTNRVKKCLAKGT | 3.08
NQEITKAFHVRRTNRVKDCLAKGT | 3.47
NQEITKAFHVRRTNRVKACLAKGT | 3.08
NQEITKAFHVSRTNRVKECLAKGT | 3.99
NQEITKAFHVARTNRVKECLAKGT | 4.09
NQEITKAFHVCRTNRVKECLAKGT | 3
NQEITKAFHVERTNRVKECLAKGT | 4.25
NQEITKAFHVYRTNRVKECLAKGT | 2.94
NQEITKAFHVRRTNRVKECLYKGT | 2.83
NQEITKAFHVRRTNRVKECLFKGT | 2.85
NQEITKAFHVRRTNRVKECLCKGT | 1.94
NQEITKAFHVRRTNRVKECLVKGT | 2.8
NQEITKAFHVRRTNRVKECLLKGT | 2.61
NQEITKAFHVRRTNRVKECLKKGT | 3.15
NQEITKAFHVRRTNRVKECLQKGT | 2.65
NQEITFAFHVRRTNRVKECLAKGT | 2.97
NQEITQAFHVRRTNRVKECLAKGT | 3.18
NQEITRAFHVRRTNRVKECLAKGT | 2.87
NQEITVAFHVRRTNRVKECLAKGT | 2.1
NQEITNAFHVRRTNRVKECLAKGT | 3.25
NQEITCAFHVRRTNRVKECLAKGT | 2.21
NQEITWAFHVRRTNRVKECLAKGT | 2.34
NQEITSAFHVRRTNRVKECLAKGT | 2.77
NQEITKAFGVRRTNRVKECLAKGT | 4.27
NQEITKAFLVRRTNRVKECLAKGT | 2.77
NQEITKAFTVRRTNRVKECLAKGT | 3.31

Variant | protein stability index
NQEITKAFYVRRTNRVKECLAKGT | 3.2
NQEITKAFEVRRTNRVKECLAKGT | 4.58
NQEITKAFDVRRTNRVKECLAKGT | 4.12
NQEITKAFHVRRDNRVKECLAKGT | 4.09
NQEITKAFHVRRENRVKECLAKGT | 3.97
NQEITKAFHVRRPNRVKECLAKGT | 3.98
NQEITKAFHVRRKNRVKECLAKGT | 2.79
NQEITKAFHVRRGNRVKECLAKGT | 2.49
NQEITKAFHVRRNNRVKECLAKGT | 3.54
NQEITKAFHVRRWNRVKECLAKGT | 2.02
NQETTKAFHVRRTNRVKECLAKGT | 5.01
NQEFTKAFHVRRTNRVKECLAKGT | 3.46
NQEPTKAFHVRRTNRVKECLAKGT | 4.43
NQEDTKAFHVRRTNRVKECLAKGT | 4.37
NQEMTKAFHVRRTNRVKECLAKGT | 4.25
NQESTKAFHVRRTNRVKECLAKGT | 4.49
NQEETKAFHVRRTNRVKECLAKGT | 4.32
NQEATKAFHVRRTNRVKECLAKGT | 4.92
NQEITKQFHVRRTNRVKECLAKGT | 3.5
NQEITKKFHVRRTNRVKECLAKGT | 3.51
NQEITKEFHVRRTNRVKECLAKGT | 4.16
NQEITKLFHVRRTNRVKECLAKGT | 2.85
NQEITKPFHVRRTNRVKECLAKGT | 4.3
NQEITKNFHVRRTNRVKECLAKGT | 3.2

— the supplement of paper PMC10567573
